Data from patent US20230235058A1 (OXFORD UNIVERSITY INNOVATION, published 2023).

T1: soluble cynomolgus macaque BTLA extracellular domain (BTLA K31-R151) (cynomolgus macaque)
T1 construct: also called cynomolgus BTLA; cyno BTLA
T1 chain: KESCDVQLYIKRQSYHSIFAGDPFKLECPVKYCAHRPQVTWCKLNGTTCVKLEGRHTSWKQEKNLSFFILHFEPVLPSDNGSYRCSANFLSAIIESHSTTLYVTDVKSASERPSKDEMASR


What was measured:
[1] = biological target: T2, E83R (Mus musculus); assay: flow cytometry, GFP-positive transfected HEK-293T cells, fluorochrome-conjugated antibody at 10 ug/ml, Geo-mean relative to wild type;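 note: cells express mutant human BTLA ectodomain fused to murine CD28 transmembrane and cytoplasmic parts, stained 48 h after transfection for 1 h at 4 °C alongside a Live/Dead dye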
T2 construct: transmembrane and intracellular regions; also called BTLA E83R construct
Procedure: (§1) Constructs encoding the human extracellular region of BTLA with the transmembrane and intracellular regions of murine CD28 were cloned into the bi-cistronic mammalian expression vector pGFP2-n2 (BioSignal Packard Ltd), which also encodes GFP. […] Mock and no-transfection controls were included with each experiment. Cells were harvested at 48 hours and stained with fluorochrome-conjugated anti-BTLA antibody at 10 μg/ml, alongside a Live/Dead marker, in PBS, 0.05% azide, 2% FCS (FACS buffer) for 1 h at 4° C. Cells were washed, pelleted and resuspended in 200 μl FACS buffer before being analysed on a BD FACSCanto flow cytometer. […] For each mutant the Geo-mean of anti-BTLA antibody binding to transfected cells was expressed as a percentage of binding to the wild-type receptor (FIG. 3b). A panel of anti-BTLA antibodies was assessed and any mutation that eliminated binding of all antibodies was excluded from the analysis, on the assumption that such mutations lead to drastic changes in protein folding or expression rather than indicating an antibody epitope.

[2] = biological target: T3, E55R (Mus musculus); assay: as above
T3 construct: transmembrane and intracellular regions; also called BTLA E55R construct
Procedure: as §1

[3] = biological target: T4, E92R (Mus musculus); assay: as above
T4 construct: transmembrane and intracellular regions; also called BTLA E92R construct
Procedure: as §1

[4] = biological target: T5, L106R (Mus musculus); assay: as above
T5 construct: transmembrane and intracellular regions; also called BTLA L106R construct
Procedure: as §1

[5] = biological target: T6, D35R (Mus musculus); assay: as above
T6 construct: transmembrane and intracellular regions; also called BTLA D35R construct
Procedure: as §1

[6] = biological target: T7, D52R (Mus musculus); assay: as above
T7 construct: transmembrane and intracellular regions; also called BTLA D52R construct
Procedure: as §1

[7] = biological target: T8, A64R (Mus musculus); assay: as above
T8 construct: transmembrane and intracellular regions; also called BTLA A64R construct
Procedure: as §1

[8] = biological target: T9, Q86R (Mus musculus); assay: as above
T9 construct: transmembrane and intracellular regions; also called BTLA Q86R construct
Procedure: as §1

[9] = biological target: T1, soluble cynomolgus macaque BTLA …; assay: SPR 37C, mAb captured, BTLA ECD analyte;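 note: Anti-BTLA mouse antibodies captured on a sensor chip via polyclonal anti-mouse IgG, isotype control antibody in reference channel, rates fitted after reference and blank subtraction to derive Kd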
[10] = biological target: T1, soluble cynomolgus macaque BTLA …; assay: SPR (Biacore T200), single cycle kinetics at 37 C, antibody captured on anti-mouse IgG, soluble BTLA extracellular domain as analyte
Procedure: Mouse antibody capture kit (GE Healthcare) was used to coat a Series S CMS Sensor Chip (GE Healthcare) with polyclonal anti-mouse IgG. Anti-BTLA antibody was then captured onto the biosensor surface and a negative control antibody (clone Mopc21; Biolegend) captured in the reference channel. […] Association and dissociation rates were fitted using BiaEvaluation Software (GE Healthcare) after reference and blank subtractions, and dissociation constants were calculated (FIG. 1b).

T6 sequence (Q7Z6A9 31-151 D35R): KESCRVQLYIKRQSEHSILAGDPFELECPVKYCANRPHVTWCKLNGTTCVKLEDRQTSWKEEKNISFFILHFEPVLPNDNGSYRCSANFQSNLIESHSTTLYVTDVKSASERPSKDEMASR

Row | binding as % of binding to wild-type BTLA [1] | binding as % of binding to wild-type BTLA [2] | binding as % of binding to wild-type BTLA [3] | binding as % of binding to wild-type BTLA [4] | binding as % of binding to wild-type BTLA [5] | binding as % of binding to wild-type BTLA [6] | binding as % of binding to wild-type BTLA [7] | binding as % of binding to wild-type BTLA [8] | Kd [9] | Kd [10] | koff [10] | kon [10] | Binder
1 | 95.5% | 60.5% | 73.3% | 135% | 71.2% | 129% | 148% | 132% | 0.99 nM | 0.995 nM | 0.000952 s⁻¹ | 957000 M⁻¹ s⁻¹ | 11.5.1 (antibody, V domains shown, mouse IgG1k hybridoma antibody) VH: EVQLQESGPSLVKPSQTLSLTCSVTGDSITSAYWNWIRKFPGNKLEYMGYISYSGSTYFNPSLKSRISITRNTSKNQYYLQLNSVTTEDTATYYCARSHYYGYYFDYWGHGTTLTVSS VL: DIVLTQSPASLAVSLGQRATISCRASETIDSYGDSLMHWYQQKAGQPPKLLIYRASNLESGIPARFSGSGSRTDFTLTINPVEADDVATYYCQQTDEDPYTFGGGTKLEIK
2 | 98.8% | 52% | 62.2% | 80.4% | 83.7% | 70.2% | 93.5% | 97.9% | 7.89 nM | – | 0.00627 s⁻¹ | 795000 M⁻¹ s⁻¹ | 2.8.6 (antibody, V domains shown, mouse IgG1k hybridoma antibody; also called clone 2.8.6) VH: QVQLKESGPGLVAPSQSLSITCTVSGFSLTTYGVHWVRQSPGKGLEWLGVMWPGGRTSYNPAPMSRLSISKDNSKSQVFLKMNSLQTDDTAMYYCVRGDYEYDYYAMDYWGQGTSVTVSS VL: QIVLSQSPAILSASPGEKVTMTCRASSSVSYMHWYQQKPGSSPKPWIYATSNLASGVPARFSGSGSGTSYSLTISRMEAEDAATYYCHQWSSNPYTFGGGTKLEIK
